In experiment [1] the target is T1, aggregated α-synuclein (human, UniProt P37840 1-140). The experiment can be described thus: in vitro binding, method not stated; same EC50 in mass units.
Experiment [2] concerns the target T1, aggregated α-synuclein. The experiment can be described thus: in vitro binding, method not stated; estimated from binding constants.

The term EC50 denotes the concentration that produces a half-maximal response.

B1: BIIB054 (antibody, human IgG1, lambda, V domains shown)
VH: EVQLVESGGGLVEPGGSLRLSCAVSGFDFEKAWMSWVRQAPGQGLQWVARIKSTADGGTTSYAAPVEGRFIISRDDSRNMLYLQMNSLKTEDTAVYYCTSAHWGQGTLVTVSS
VL: SYELTQPPSVSVSPGQTARITCSGEALPMQFAHWYQQRPGKAPVIVVYKDSERPSGVPERFSGSSSGTTATLTITGVQAEDEADYYCQSPDSTNTYEVFGGGTKLTVLS
notes: Fully human IgG1/lambda monoclonal antibody; also called anti-α-synuclein antibody
For B1, the 50% effective concentration (EC50) with aggregated α-synuclein [1] is approximately 0.0375 µg/mL; with aggregated α-synuclein [2], approximately 0.25 nM.
